The values that follow come from article PMC3983035, “The RNA-Binding Protein QKI Suppresses Cancer-Associated Aberrant Splicing”.

One series has as its target T1, QKI-5 (His-tagged) (UniProt Q96PU8 1-341).
T1 sequence: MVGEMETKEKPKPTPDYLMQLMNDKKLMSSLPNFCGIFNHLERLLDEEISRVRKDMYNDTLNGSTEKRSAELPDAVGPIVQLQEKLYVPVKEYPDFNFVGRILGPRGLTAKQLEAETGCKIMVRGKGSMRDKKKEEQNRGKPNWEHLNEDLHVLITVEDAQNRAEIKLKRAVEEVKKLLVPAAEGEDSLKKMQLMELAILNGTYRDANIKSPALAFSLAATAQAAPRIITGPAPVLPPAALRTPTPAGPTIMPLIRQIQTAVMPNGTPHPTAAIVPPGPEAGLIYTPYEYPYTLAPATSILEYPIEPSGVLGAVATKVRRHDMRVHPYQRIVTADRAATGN
In words: EMSA; 0-2080 nM QKI-5; EMSA: 10 ng 32P-RNA, standard splicing conditions, 30 C, 20 min, then tRNA 5 min; 5% native PAGE; buffer, salt and pH not given. The settings on record: protein: recombinant; tags: His-tag (pET-28a); reverse primer also encodes C-terminal FLAG; chain copies: 2; label: 32P.

A further series deals with T2, SF1 (aa 1-361) (UniProt Q15637 1-361).
T2 sequence: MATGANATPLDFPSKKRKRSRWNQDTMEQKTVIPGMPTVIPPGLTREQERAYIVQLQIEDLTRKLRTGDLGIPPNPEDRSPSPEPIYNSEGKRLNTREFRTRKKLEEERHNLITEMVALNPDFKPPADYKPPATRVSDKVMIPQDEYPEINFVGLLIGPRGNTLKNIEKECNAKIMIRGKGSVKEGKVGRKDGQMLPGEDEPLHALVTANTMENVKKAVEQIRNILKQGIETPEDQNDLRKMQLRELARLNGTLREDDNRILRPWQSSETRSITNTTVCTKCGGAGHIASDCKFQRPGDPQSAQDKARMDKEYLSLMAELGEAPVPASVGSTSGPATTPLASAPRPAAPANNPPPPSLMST
In words: EMSA; 5-10x molar excess; EMSA: 10 ng 32P-RNA, standard splicing conditions, 30 C, 20 min, then tRNA 5 min; 5% native PAGE; buffer, salt and pH not given. The conditions noted are these: protein: recombinant; tags: N-terminal GST (pGEX-5X-2); label: 32P. For orientation: A gel shift assay detects complexes by their altered migration in electrophoresis.

B1: NUMB mut2 RNA (ssRNA)
RNA: GGGCACUUGUACACCCUGCAUGAAUUGACUCCAUUGAUGUUGUCUGCUCCCGUUGUAGCGAGUGGCACUGACUCAGCCUUCCAU
For B1, in the series with QKI-5 (His-tagged), the binding result was “no binding”.

B2: NUMB mut1 RNA (ssRNA)
RNA: GGGCACUUGUACACCCUGCAUGAAUUAACUCCAUUGAUGUUGUCUGCUCCCGUUGUAGCGAGUGGCACUGACUCAGCCUUCCAU
As to B2, in the series with SF1 (aa 1-361), the binding result was “binds”.
